Target: T1, connexin 36 (rat (endogenous in supraoptic nucleus), UniProt O70610 1-321)
T1 sequence (looked up): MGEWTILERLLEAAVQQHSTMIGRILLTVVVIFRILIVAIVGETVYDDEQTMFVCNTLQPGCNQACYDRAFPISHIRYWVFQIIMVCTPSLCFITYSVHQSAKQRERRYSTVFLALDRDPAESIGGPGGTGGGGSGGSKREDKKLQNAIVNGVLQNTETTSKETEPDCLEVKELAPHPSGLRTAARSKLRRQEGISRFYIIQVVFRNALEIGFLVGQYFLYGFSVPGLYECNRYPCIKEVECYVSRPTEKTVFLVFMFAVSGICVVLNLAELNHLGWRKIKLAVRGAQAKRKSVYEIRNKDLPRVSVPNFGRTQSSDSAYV
Assay: co-IP

fold co-precipitated OT-NP in lactating rats relative to virgin rats: 1.61 fold
B1: oxytocin-neurophysin (natural protein, rat (endogenous in supraoptic nucleus), UniProt P01179 20-125, looked up)
chain: CYIQNCPLGGKRAALDLDMRKCLPCGPGGKGRCFGPSICCADELGCFVGTAEALRCQEENYLPSPCQSGQKPCGSGGRCATAGICCSPDGCRTDPACDPESAFSER
